Source: paper PMC11359509, “Anti-Skin Aging Potential, Antibacterial Activity, Inhibition of Single-Stranded DNA-Binding Protein, and Cytotoxic Effects of Acetone-Extracted Passiflora edulis (Tainung No. 1) Rind Extract on Oral”

Biological target: KpSSB (single-stranded DNA-binding protein) (Klebsiella pneumoniae, UniProt A6TGW7 1-174)
Test: EMSA; no extract; [Protein]50; 40 mM Tris-HCl pH 7.5, 50 mM NaCl, 37 °C, 60 min; 30 fmol/uL biotinylated ssDNA; 8% native PAGE in TBE
Conditions: protein: recombinant, tag not described, chain copies: 4

KpSSB (single-stranded DNA-binding protein), sequence (A6TGW7 whole entry): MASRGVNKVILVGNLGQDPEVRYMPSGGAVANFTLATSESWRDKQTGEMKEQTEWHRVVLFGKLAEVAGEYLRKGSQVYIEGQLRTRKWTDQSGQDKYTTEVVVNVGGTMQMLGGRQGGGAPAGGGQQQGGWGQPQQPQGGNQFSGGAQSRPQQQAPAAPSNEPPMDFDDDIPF

B1: dT35 (ssDNA)
DNA: TTTTTTTTTTTTTTTTTTTTTTTTTTTTTTTTTTT
apparent K (half saturation): 206 ± 14.3 nM
